Results on five sequences are retold here after the supplement of paper PMC5998384.

The subject of data set [1] is HeLa Kyoto. In words: solubility change mitosis vs G1/S (difference of NP-40 vs SDS log2 ratios) (log2 ratio difference); higher = more soluble in mitosis.
Data set [2] concerns HeLa Kyoto. As to the kind of experiment: thermal stability score vs G1/S (z-score of summed log2 fold changes over temperatures); higher = more thermally stable than in G1/S.
Data set [3] has as its system HeLa Kyoto. In words: solubility in G1/S (NP-40 vs SDS abundance) (log2 ratio); higher = more soluble. The note with it: cell cycle stage: G1/S.
Data set [4] deals with HeLa Kyoto. In words: melting temperature (median over replicates), in situ; higher = more thermally stable.
The mark [5] stands for this setting: cell cycle stage: early G1 (4.5 h after nocodazole release).
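For melting temperature (median over replicates), in situ in this document: HeLa Kyoto cells synchronized by double thymidine or nocodazole block, proteins quantified by TMT10plex mass spectrometry, three independent biological replicates.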
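For solubility change mitosis vs G1/S (difference of NP-40 vs SDS log2 ratios) in this document: synchronized HeLa Kyoto cells (double thymidine block for G1/S, nocodazole release for mitosis), protein amounts in NP-40 versus SDS lysates quantified by mass spectrometry, three biological replicates.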
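For solubility in G1/S (NP-40 vs SDS abundance) in this document: HeLa Kyoto cells arrested at G1/S by double thymidine block, proteins quantified by TMT10plex mass spectrometry in mild NP-40 versus SDS extracts, three biological replicates.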
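For thermal stability score vs G1/S (z-score of summed log2 fold changes over temperatures) in this document: synchronized HeLa Kyoto cells, proteins quantified by TMT10plex mass spectrometry, three biological replicates, mitosis taken 0.5 h after nocodazole release, G1/S directly after double thymidine block.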

Consider “MVSWMICRLVVLVFGMLCPAYASYKAVKTKNIREYVRWMMYWIVFALFMAAEIVTDIFISWFPFYYEIKMAFVLWLLSPYTKGASLLYRKFVHPSLSRHEKEIDAYIVQAKERSYETVLSFGKRGLNIAASAAVQAATKSQGALAGRLRSFSMQDLRSISDAPAPAYHDPLYLEDQVSHRRPPIGYRAGGLQDSDTEDECWSDTEAVPRAPARPREKPLIRSQSLRVVKRKPPVREGTSRSLKVRTRKKTVPSDVDS [REEP4]”, for which the “solubility change mitosis (log2)” value in the data set with HeLa Kyoto [1] was -0.135. Moreover, the thermal stability score in the data set on HeLa Kyoto [2] (setting [5]) is -1.06; in the data set with HeLa Kyoto [2] (cell cycle stage: mitosis) it was -1.58. Also, in the data set on HeLa Kyoto [3], the “solubility in G1/S (log2)” value came out at 0.0372. Besides, the melting temperature with HeLa Kyoto [4] (cell cycle stage: G1/S) came out at 53.4 °C; in the data set with HeLa Kyoto [4] (cell cycle stage: mitosis) it was 53.2 °C.
As for “MVSWMISRAVVLVFGMLYPAYYSYKAVKTKNVKEYVRWMMYWIVFALYTVIETVADQTVAWFPLYYELKIAFVIWLLSPYTKGASLIYRKFLHPLLSSKEREIDDYIVQAKERGYETMVNFGRQGLNLAATAAVTAAVKSQGAITERLRSFSMHDLTTIQGDEPVGQRPYQPLPEAKKKSKPAPSESAGYGIPLKDGDEKTDEEAEGPYSDNEMLTHKGLRRSQSMKSVKTTKGRKEVRYGSLKYKVKKRPQVYF [REEP3]”, the “solubility change mitosis (log2)” value in the data set on HeLa Kyoto [1] is -0.0257. The thermal stability score was -1.24 in the data set on HeLa Kyoto [2] (setting [5]) and -0.732 with HeLa Kyoto [2] (cell cycle stage: mitosis). In the data set on HeLa Kyoto [3], the “solubility in G1/S (log2)” value was -0.258. In addition, the results for the melting temperature in the data set on HeLa Kyoto [4] (cell cycle stage: G1/S) and in the data set on HeLa Kyoto [4] (cell cycle stage: mitosis) were 52.8 °C and 54.9 °C, respectively.
For the sequence “MVVFVGRRLPALLGLFKKKGSAKAENDKHLSVGPGQGPGSAVDEHQDNVFFPSGRPPHLEELHTQAQEGLRSLQHQEKQKLNKGGWDHGDTQSIQSSRTGPDEDNISFCSQTTSYVAESSTAEDALSIRSEMIQRKGSTFRPHDSFPKSGKSGRRRRERRSTVLGLPQHVQKELGLRNEREAPGTPRAPGARDAVRIPTVDGRPRGTSGMGARVSLQALEAEAEAGAETEAMLQRHIDRVYRDDTFVGRSTGTRAPPLTRPMSLAVPGLTGGAGPAEPLSPAMSISPQATYLSKLIPHAVLPPTVDVVALGRCSLRTLSRCSLHSASPASVRSLGRFSSVSSPQPRSRHPSSSSDTWSHSQSSDTIVSDGSTLSSKGGSEGQPESSTASNSVVPPPQGGSGRGSPSGGSTAEASDTLSIRSSGQLSGRSVSLRKLKRPPPPPRRTHSLHQRGLAVPDGPLGLPPKPERKQQPQLPRPPTTGGSEGAGAAPCPPNPANSWVPGLSPGGSRRPPRSPERTLSPSSGYSSQSGTPTLPPKGLAGPPASPGKAQPPKPERVTSLRSPGASVSSSLTSLCSSSSDPAPSDRSGPQILTPLGDRFVIPPHPKVPAPFSPPPSKPRSPNPAAPALAAPAVVPGPVSTTDASPQSPPTPQTTLTPLQESPVISKDQSPPPSPPPSYHPPPPPTKKPEVVVEAPSASETAEEPLQDPNWPPPPPPAPEEQDLSMADFPPPEEAFFSVASPEPAGPSGSPELVSSPAASSSSATALQIQPPGSPDPPPAPPAPAPASSAPGHVAKLPQKEPVGCSKGGGPPREDVGAPLVTPSLLQMVRLRSVGAPGGAPTPALGPSAPQKPLRRALSGRASPVPAPSSGLHAAVRLKACSLAASEGLSSAQPNGPPEAEPRPPQSPASTASFIFSKGSRKLQLERPVSPETQADLQRNLVAELRSISEQRPPQAPKKSPKAPPPVARKPSVGVPPPASPSYPRAEPLTAPPTNGLPHTQDRTKRELAENGGVLQLVGPEEKMGLPGSDSQKELA [KIAA1522]”, the “solubility change mitosis (log2)” value with HeLa Kyoto [1] was -0.199. Moreover, the thermal stability score with HeLa Kyoto [2] (setting [5]) worked out at 0.117; with HeLa Kyoto [2] (cell cycle stage: mitosis) it was 0.588. Also, the “solubility in G1/S (log2)” value in the data set with HeLa Kyoto [3] amounted to 0.188. The melting temperature amounted to 52 °C with HeLa Kyoto [4] (cell cycle stage: G1/S) and 52.4 °C in the data set on HeLa Kyoto [4] (cell cycle stage: mitosis).
In the case of “MVVLSVPAEVTVILLDIEGTTTPIAFVKDILFPYIEENVKEYLQTHWEEEECQQDVSLLRKQAEEDAHLDGAVPIPAASGNGVDDLQQMIQAVVDNVCWQMSLDRKTTALKQLQGHMWRAAFTAGRMKAEFFADVVPAVRKWREAGMKVYIYSSGSVEAQKLLFGHSTEGDILELVDGHFDTKIGHKVESESYRKIADSIGCSTNNILFLTDVTREASAAEEADVHVAVVVRPGNAGLTDDEKTYYSLITSFSELYLPSST [ENOPH1]”, the “solubility change mitosis (log2)” value in the data set with HeLa Kyoto [1] was -0.175. For the same sequence, the figures for the thermal stability score in the data set on HeLa Kyoto [2] (setting [5]) and with HeLa Kyoto [2] (cell cycle stage: mitosis) were 2.1 and 3.35, respectively. Further, the “solubility in G1/S (log2)” value in the data set with HeLa Kyoto [3] stood at 0.267. Moreover, the melting temperature in the data set with HeLa Kyoto [4] (cell cycle stage: G1/S) was determined as 50.6 °C; with HeLa Kyoto [4] (cell cycle stage: mitosis), 50.7 °C.
Consider “MVWPWVAMASRWGPLIGLAPCCLWLLGAVLLMDASARPANHSSTRERVANREENEILPPDHLNGVKLEMDGHLNRGFHQEVFLGKDLGGFDEDAEPRRSRRKLMVIFSKVDVNTDRKISAKEMQRWIMEKTAEHFQEAMEESKTHFRAVDPDGDGHVSWDEYKVKFLASKGHSEKEVADAIRLNEELKVDEETQEVLENLKDRWYQADSPPADLLLTEEEFLSFLHPEHSRGMLRFMVKEIVRDLDQDGDKQLSVPEFISLPVGTVENQQGQDIDDNWVKDRKKEFEELIDSNHDGIVTAEELESYMDPMNEYNALNEAKQMIAVADENQNHHLEPEEVLKYSEFFTGSKLVDYARSVHEEF [SDF4]”, for which the “solubility change mitosis (log2)” value in the data set on HeLa Kyoto [1] was -0.0276. Besides, the results for the thermal stability score in the data set with HeLa Kyoto [2] (setting [5]) and in the data set with HeLa Kyoto [2] (cell cycle stage: mitosis) were 2.12 and 3, respectively. Moreover, in the data set on HeLa Kyoto [3], the “solubility in G1/S (log2)” value came out at 0.52. For the same sequence, the melting temperature with HeLa Kyoto [4] (cell cycle stage: G1/S) was 52.8 °C; in the data set on HeLa Kyoto [4] (cell cycle stage: mitosis) it was 53.9 °C.
